# Data reported in patent publication US20110262447A1 (RAMOT AT TEL AVIV UNIVERSITY, published 2011).
# Where a chain is given by its changes, count along the chain named.
# B1: A4 scFv (scFv)
# scFv: VQLLESGGGLVQPGGSLRLSCAASGFTFSGYWMHWVRQAPGKGLEWVSEISGSGDSTHYGDSVKGRFTISRDNSKNTLYLQMNSLRAEDTAVYYCARGRNGSLDYWGQGTLVTVSSGSAGGGGSGGGGSGGGGSDIVLTQPPSASGTPGQRVTISCTGNSSNIGAGYDVHWYQQLPGKAPKLLIYSNNQRPSGVPDRFSGSKSGTSASLAISGLRSEDEADYYCAAWDDSLSSVVFGGGTKLTV
# B2: B6 scFv (scFv)
# scFv: B1 scFv with N159S, S161A, S186D, N188D, Q189K, S230R, S233G, L242V
# B3: F2 scFv (scFv)
# scFv: B1 scFv with T157S, N159T, G166D, S186D, Q189K, P195S, D229S, K241Q
# Legend:
# Bovine Serum Albumin = biological target: T1, Bovine Serum Albumin (bovine, UniProt P02769 25-607); assay: ELISA, group 5, BSA
# T1 construct: also called BSA
# T1 sequence (P02769 25-607 limits assumed): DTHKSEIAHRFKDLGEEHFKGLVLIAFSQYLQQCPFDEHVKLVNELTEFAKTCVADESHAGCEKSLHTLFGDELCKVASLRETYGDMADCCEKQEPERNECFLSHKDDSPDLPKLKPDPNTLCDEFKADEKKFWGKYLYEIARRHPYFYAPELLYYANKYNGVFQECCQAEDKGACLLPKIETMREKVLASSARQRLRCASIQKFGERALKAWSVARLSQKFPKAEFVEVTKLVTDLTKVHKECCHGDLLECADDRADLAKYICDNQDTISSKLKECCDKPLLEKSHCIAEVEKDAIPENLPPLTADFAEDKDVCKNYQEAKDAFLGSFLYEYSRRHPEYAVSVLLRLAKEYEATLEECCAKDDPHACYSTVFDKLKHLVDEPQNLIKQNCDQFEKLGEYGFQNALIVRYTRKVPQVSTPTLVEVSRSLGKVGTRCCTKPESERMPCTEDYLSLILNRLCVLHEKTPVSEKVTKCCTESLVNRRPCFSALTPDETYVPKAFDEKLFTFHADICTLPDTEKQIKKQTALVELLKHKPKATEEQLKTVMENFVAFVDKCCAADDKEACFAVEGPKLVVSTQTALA
# Streptavidin = Streptavidin (UniProt P22629 37-163); assay: ELISA, group 6, Streptavidin
# Streptavidin, sequence (P22629 37-163 limits assumed): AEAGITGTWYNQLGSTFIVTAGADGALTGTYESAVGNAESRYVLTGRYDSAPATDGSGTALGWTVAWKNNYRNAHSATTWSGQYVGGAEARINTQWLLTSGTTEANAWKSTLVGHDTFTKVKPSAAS
# [1] = biological target: multiple antigen peptide presenting amino acids 144-153 of the human prion protein (MAP-PrP […]) (human); assay: ELISA, group 3, MAP-PrP
Binder,binding result (Bovine Serum Albumin),binding result (Streptavidin),binding result [1]
B1,no binding (tested: not given on the sheet),no binding (tested: not given on the sheet),–
B2,no binding (tested: not given on the sheet),no binding (tested: not given on the sheet),no binding (tested: not given on the sheet)
B3,–,no binding (tested: not given on the sheet),no binding (tested: not given on the sheet)
